# Reference: doi:10.1101/2022.10.17.512556 (bioRxiv, 2022)
# Several values for one entry are separate records, joined by “and”; a condition that tells them apart may be missing. Equal entries are not always repeated. Where two headings read alike, the source gives them in different places.
# B1: S210A DegP (enzyme)
# chain: AETSSATTAQQMPSLAPMLEKVMPSVVSINVEGSTTVNTPRMPRNFQQFFGDDSPFCQEGSPFQSSPFCQGGQGGNGGGQQQKFMALGSGVIIDADKGYVVTNNHVVDNATVIKVQLSDGRKFDAKMVGKDPRSDIALIQIQNPKNLTAIKMADSDALRVGDYTVAIGNPFGLGETVTSGIVSALGRSGLNAENYENFIQTDAAINRGNAGGALVNLNGELIGINTAILAPDGGNIGIGFAIPSNMVKNLTSQMVEYGQVKRGELGIMGTELNSELAKAMKVDAQRGAFVSQVLPNSSAAKAGIKAGDVITSLNGKPISSFAALRAQVGTMPVGSKLTLGLLRDGKQVNVNLELQQSSQNQVDSSSIFNGIEGAEMSNKGKDQGVVVNNVKTGTPAAQIGLKKGDVIIGANQQAVKNIAELRKVLDSKPSVLALNIQRGDSTIYLLMQ
# Key:
# cryo-EM structure [1] = target: the molecule itself; assay: cryo-EM structure
# cryo-EM structure [2] = target: the molecule itself; assay: cryo-EM structure; remark: listed apart in the source
protein,measurement,setting,value
B1,stoichiometry N,cryo-EM structure [1],30 and 60
same,stoichiometry N,cryo-EM structure [2],18
